# Test results as given in patent publication US20130101549A1 (Biogen, published 2013).
# T1: human HVEM-Ig (human, UniProt Q92956 39-202)
# T1 construct: Expressed and purified in house; also called HVEM-Fc; Herpes virus entry mediator-Ig
# T1 sequence (looked up): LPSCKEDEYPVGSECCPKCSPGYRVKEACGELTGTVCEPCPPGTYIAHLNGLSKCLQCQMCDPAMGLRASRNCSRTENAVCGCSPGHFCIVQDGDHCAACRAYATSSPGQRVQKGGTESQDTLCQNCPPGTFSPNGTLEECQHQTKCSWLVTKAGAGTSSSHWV
# T2: murine HVEM-Ig (mouse, UniProt Q80WM9 39-210)
# T2 construct: Expressed and purified in house
# T2 sequence (looked up): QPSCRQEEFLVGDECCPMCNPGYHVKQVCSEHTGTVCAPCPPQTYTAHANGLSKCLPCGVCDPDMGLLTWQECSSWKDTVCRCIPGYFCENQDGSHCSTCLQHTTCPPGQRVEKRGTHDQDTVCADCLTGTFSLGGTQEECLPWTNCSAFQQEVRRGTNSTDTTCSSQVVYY
# B1: 71F10 Fab-hLIGHT fusion with the (G4S)4 linker (BIIB71F10-132) (other)
# heavy: EVQLLESGGGLVQPGGSLRLSCAASGFTFSSYGMVWVRQAPGKGLEWVSSISSSGGLTWYADSVKGRFTISRDNSKNTLYLQMNSLRAEDTAVYYCASPPGIAVARDYWGQGTLVTVSSASTKGPSVFPLAPSSKSTSGGTAALGCLVKDYFPEPVTVSWNSGALTSGVHTFPAVLQSSGLYSLSSVVTVPSSSLGTQTYICNVNHKPSNTKVDKKVEPKSCDKGGGGSGGGGSGGGGSGGGGSNPAAHLTGANSSLTGSGGPLLWETQLGLAFLRGLSYHDGALVVTKAGYYYIYSKVQLGGVGCPLGLASTITHGLYKRTPRYPEELELLVSQQSPCGRATSSSRVWWDSSFLGGVVHLEAGEEVVVRVLDERLVRLRDGTRSYFGAFMV
# light: DIQMTQSPSSLSASVGDRVTITCRASQGISNYLAWYQQKPGKVPKLLIYAASTLQSGVPSRFSGSGSGTDFTLTISSLQPEDVATYYCQKYNSALLTFGGGTKVEIKRTVAAPSVFIFPPSDEQLKSGTASVVCLLNNFYPREAKVQWKVDNALQSGNSQESVTEQDSKDSTYSLSSTLTLSKADYEKHKVYACEVTHQGLSSPVTKSFNRGEC
# notes: Trimer of Fab-LIGHT units; also called 71F10 Fab-(G4S)4-LIGHT
# What was measured:
# human HVEM-Ig [1] = molecular target: T1, human HVEM-Ig; experiment: ELISA, huHVEM-Ig coated at 0.2 ug/ml, HRP goat anti-human kappa; the number is C of the printed 4-P fit (A 0.08, B 1.089, D 1.303, R^2 0.999); Fab-Light is BIIB71F10-132 by paragraph 503
# Experimental: (§1) Human and murine ErbB2-Fc were obtained from R&D Systems. Wells of 96-well plates were coated with 2 ug/ml or 0.2 ug/ml of human or murine HER2-Fc by incubation overnight at 4-8° C. with either of these six proteins (80 ul/well of a 0.2 or 2 ug/ml solution in PBS). Wells were emptied, filled completely with a solution of PBS with 1% BSA (blocking buffer) and incubated at room temperature for 1 hour. Wells were emptied, washed twice PBS containing 0.05% Tween 20 (PBST) and filled with the samples (80 ul/well of 3× dilution series of the standard and supernatants in blocking buffer) prepared in another 96-well plate. After a 2-hour incubation at room temperature, the wells were emptied, washed three times with PBST and filled with a solution of HRP-conjugated goat pAbs anti-human kappa chain (80 ul/well of a 2000-fold dilution in blocking buffer). After 1-hour incubation, the wells were emptied and filled with a solution of HRP substrate prepared freshly. The color was left to develop for 3 minutes and was stopped by addition of an equal volume of 1N H₂SO₄. Absorbance was measured at 450 nm using a Plate Reader (SpectraMax, Molecular Devices). The data was processed and graphs were created using SoftMax Pro software.
# (§2) Human and murine HVEM-Ig were expressed and purified in house.
# murine HVEM-Ig = molecular target: T2, murine HVEM-Ig; experiment: ELISA, muHVEM-Ig coated at 2 ug/ml, HRP goat anti-human kappa; the number is C of the printed 4-P fit (A 0.036, B 0.816, D 1.534, R^2 0.997); Fab-Light is BIIB71F10-132 by paragraph 503
# Experimental: as §1, §2
# murine HER2-Fc = molecular target: T3, murine HER2-Fc (mouse; human, UniProt P70424 23-653); experiment: ELISA on coated muHER2-Fc, HRP anti-human kappa; the number is C of the printed 4-P fit (A -0.025, B 0.883, D 0.935, R^2 0.999); x axis: Fab equivalent concentration
# T3 construct: extracellular domain; Bought from R&D Systems; also called murine ErbB2-Fc; not shown: Fc fragment of human IgG1
# Experimental: as §1, with “Wells” for “Human and murine ErbB2-Fc were obtained from R&D Systems. Wells”, “coated” for “coated with 2 ug/ml or 0.2 ug/ml of human or murine HER2-Fc”, “goat antibodies against human kappa chain” for “either of these six proteins”, “5” for “0.2 or 2”
# (§3) Human and murine HER2-Fc (homodimeric fusion proteins consisting of the extracellular domain of HER2 and the Fc fragment of human IgG1) were obtained from R&D Systems. […]
# human LTβR-Ig = molecular target: T4, human LTβR-Ig (human, UniProt P36941 31-227); experiment: ELISA on coated LTbR-Ig
# T4 construct: Expressed and purified in house; also called hLTbR-Ig; human LTBR-Ig
# Experimental: as §1
# (§4) Human and murine LTBR-Ig were expressed and purified in house.
# murine LTβR-Ig [2] = molecular target: T5, murine LTβR-Ig (mouse, UniProt P50284 31-223); experiment: ELISA, muLTBR-Ig coated at 2 ug/ml, HRP goat anti-human kappa; the number is C of the printed 4-P fit (A 0.093, B 0.898, D 1.613, R^2 0.995); Fab-Light is BIIB71F10-132 by paragraph 502
# T5 construct: Expressed and purified in house; also called mLTbR; murine LTBR-Ig
# Experimental: as §1, §4
# IGFR-Ig = molecular target: T6, IGFR-Ig (UniProt P08069 31-932); experiment: ELISA on IGFR-Ig, dilutions of medium of transfected CHO cells; the linker version of the control fusion is not named on the sheet
# T6 construct: not shown: Ig part not specified
# murine LTβR-Ig [3] = molecular target: T5, murine LTβR-Ig; experiment: ELISA, muLTBR-Ig coated at 0.2 ug/ml, HRP goat anti-human kappa; the number is C of the printed 4-P fit (A 0.064, B 0.872, D 1.453, R^2 0.999); Fab-Light is BIIB71F10-132 by paragraph 502
# Experimental: as §1, §4
# human HER2-Fc = molecular target: T7, human HER2-Fc (human, UniProt P04626 23-652); experiment: ELISA on coated huHER2-Fc, HRP anti-human kappa; the number is C of the printed 4-P fit (A -0.074, B 0.86, D 1.013, R^2 0.999); x axis: Fab equivalent concentration
# T7 construct: Bought from R&D Systems: homodimeric fusion of the HER2 extracellular domain and human IgG1 Fc; also called human ErbB2-Fc; rhErbB2-Fc; not shown: Fc fragment of human IgG1
# Experimental: as §1, with “Wells” for “Human and murine ErbB2-Fc were obtained from R&D Systems. Wells”, “coated” for “coated with 2 ug/ml or 0.2 ug/ml of human or murine HER2-Fc”, “goat antibodies against human kappa chain” for “either of these six proteins”, “5” for “0.2 or 2”
# as §3
# human HVEM-Ig [4] = molecular target: T1, human HVEM-Ig; experiment: ELISA on coated HVEM-Ig
# Experimental: as §1, §2
# T5 sequence (P50284 31-223): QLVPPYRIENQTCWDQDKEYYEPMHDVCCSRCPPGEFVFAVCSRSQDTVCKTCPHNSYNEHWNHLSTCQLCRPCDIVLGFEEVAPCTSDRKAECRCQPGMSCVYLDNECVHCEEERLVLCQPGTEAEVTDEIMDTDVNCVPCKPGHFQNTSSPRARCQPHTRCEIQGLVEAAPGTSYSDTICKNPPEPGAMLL
# T3 sequence (P70424 23-653): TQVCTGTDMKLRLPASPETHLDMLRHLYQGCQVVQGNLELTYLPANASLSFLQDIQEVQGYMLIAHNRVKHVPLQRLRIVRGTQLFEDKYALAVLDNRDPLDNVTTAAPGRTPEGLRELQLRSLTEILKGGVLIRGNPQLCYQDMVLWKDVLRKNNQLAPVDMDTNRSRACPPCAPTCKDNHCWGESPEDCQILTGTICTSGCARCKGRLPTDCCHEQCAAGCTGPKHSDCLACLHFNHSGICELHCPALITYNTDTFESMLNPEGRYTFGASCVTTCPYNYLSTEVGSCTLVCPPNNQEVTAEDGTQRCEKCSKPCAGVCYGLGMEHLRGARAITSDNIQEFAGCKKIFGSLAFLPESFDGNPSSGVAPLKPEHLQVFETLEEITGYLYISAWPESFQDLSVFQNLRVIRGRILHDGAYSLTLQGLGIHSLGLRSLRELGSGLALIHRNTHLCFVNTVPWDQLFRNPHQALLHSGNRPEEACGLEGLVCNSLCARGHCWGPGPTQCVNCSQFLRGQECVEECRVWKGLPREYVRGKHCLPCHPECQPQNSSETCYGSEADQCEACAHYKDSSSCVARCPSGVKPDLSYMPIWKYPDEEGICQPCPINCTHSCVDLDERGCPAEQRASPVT
# T4 sequence (P36941 31-227): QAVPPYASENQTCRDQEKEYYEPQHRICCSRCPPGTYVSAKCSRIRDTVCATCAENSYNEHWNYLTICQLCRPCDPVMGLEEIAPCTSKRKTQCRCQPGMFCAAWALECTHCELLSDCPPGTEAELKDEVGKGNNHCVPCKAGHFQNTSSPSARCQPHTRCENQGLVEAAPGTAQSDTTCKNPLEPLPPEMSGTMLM
binder,measurement,setting,value
B1,EC50,human HVEM-Ig [1],3.98 ng/mL
same,EC50,murine HVEM-Ig,2.5 ng/mL
same,EC50,murine HER2-Fc,12.2 ng/mL
same,EC50,human LTβR-Ig,0.01 nM
same,EC50,murine LTβR-Ig [2],3.57 ng/mL
same,binding result,IGFR-Ig,no binding (tested: dilution 1.00 (undiluted medium))
same,EC50,murine LTβR-Ig [3],58.8 ng/mL
same,EC50,human HER2-Fc,7 ng/mL
same,EC50,human HVEM-Ig [4],0.01 nM
